Measured values: paper doi:10.1101/508887 (bioRxiv, 2018)

Target: T1, KIF1C-SNAPf-3XFLAG, full-length KIF1C (human, UniProt O43896 1-1103, TMR via the SNAP-tag (in the TIRF assays))
T1 sequence: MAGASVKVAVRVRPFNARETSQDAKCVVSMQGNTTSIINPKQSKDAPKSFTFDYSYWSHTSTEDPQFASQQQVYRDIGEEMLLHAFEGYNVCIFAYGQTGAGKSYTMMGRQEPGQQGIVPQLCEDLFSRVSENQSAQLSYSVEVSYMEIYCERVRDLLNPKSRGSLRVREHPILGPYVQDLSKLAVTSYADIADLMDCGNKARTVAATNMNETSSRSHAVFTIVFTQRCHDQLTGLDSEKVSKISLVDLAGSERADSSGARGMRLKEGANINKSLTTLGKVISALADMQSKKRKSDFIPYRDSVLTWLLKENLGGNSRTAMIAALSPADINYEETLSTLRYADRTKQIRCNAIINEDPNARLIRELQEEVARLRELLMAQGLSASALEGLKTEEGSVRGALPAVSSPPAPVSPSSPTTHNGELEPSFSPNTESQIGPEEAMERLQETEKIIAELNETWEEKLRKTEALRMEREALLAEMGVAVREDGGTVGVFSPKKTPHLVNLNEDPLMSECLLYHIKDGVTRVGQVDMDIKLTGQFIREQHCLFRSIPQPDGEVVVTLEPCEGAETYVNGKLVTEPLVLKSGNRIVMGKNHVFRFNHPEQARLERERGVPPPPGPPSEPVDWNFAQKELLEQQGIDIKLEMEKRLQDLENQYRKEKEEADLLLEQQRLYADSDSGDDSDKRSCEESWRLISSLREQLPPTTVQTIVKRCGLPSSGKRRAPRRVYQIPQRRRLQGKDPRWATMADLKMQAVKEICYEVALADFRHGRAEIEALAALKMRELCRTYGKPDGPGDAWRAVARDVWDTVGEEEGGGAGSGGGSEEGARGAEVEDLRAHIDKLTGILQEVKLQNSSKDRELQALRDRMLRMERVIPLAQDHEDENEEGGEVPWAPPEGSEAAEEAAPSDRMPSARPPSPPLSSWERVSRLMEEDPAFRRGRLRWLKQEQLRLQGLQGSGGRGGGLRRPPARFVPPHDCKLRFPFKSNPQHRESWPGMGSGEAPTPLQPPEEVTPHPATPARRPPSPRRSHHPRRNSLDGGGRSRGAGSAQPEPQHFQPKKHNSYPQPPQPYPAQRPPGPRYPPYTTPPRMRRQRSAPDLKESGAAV
Assay: single-molecule three-colour TIRF colocalisation on microtubules

B1: Halo-HOOK3(1-718)-3XFLAG, full-length HOOK3 (natural protein)
chain: MFSVESLERAELCESLLTWIQTFNVDAPCQTVEDLTNGVVMAQVLQKIDPAYFDENWLNRIKTEVGDNWRLKISNLKKILKGILDYNHEILGQQINDFTLPDVNLIGEHSDAAELGRMLQLILGCAVNCEQKQEYIQAIMMMEESVQHVVMTAIQELMSKESPVSAGNDAYVDLDRQLKKTTEELNEALSAKEEIAQRCHELDMQVAALQEEKSSLLAENQVLMERLNQSDSIEDPNSPAGRRHLQLQTQLEQLQEETFRLEAAKDDYRIRCEELEKEISELRQQNDELTTLADEAQSLKDEIDVLRHSSDKVSKLEGQVESYKKKLEDLGDLRRQVKLLEEKNTMYMQNTVSLEEELRKANAARSQLETYKRQVVELQNRLSEESKKADKLDFEYKRLKEKVDSLQKEKDRLRTERDSLKETIEELRCVQAQEGQLTTQGLMPLGSQESSDSLAAEIVTPEIREKLIRLQHENKMLKLNQEGSDNEKIALLQSLLDDANLRKNELETENRLVNQRLLEVQSQVEELQKSLQDQGSKAEDSVLLKKKLEEHLEKLHEANNELQKKRAIIEDLEPRFNNSSLKIEELQEALRKKEEEMKQMEERYKKYLEKAKSVIRTLDPKQNQGAAPEIQALKNQLQERDRLFHSLEKEYEKTKSQREMEEKYIVSAWYNMGMTLHKKAAEDRLASTGSGQSFLARQRQATSSRRSYPGHVQPATAR
modifications: Alexa-488 via the HaloTag (in the TIRF assays)
binding result: binds
